Consider 141 substances from the supplement of paper PMC12042874.

± gives the uncertainty stated by the source.

The nature of this data set: amyloid nucleation score (Sup35N fusion, yeast selection) (log enrichment); library NNK1; higher = more nucleation; inactive = no reads after selection. In short, it runs like this: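 For the nucleation score, DiMSum gave the log enrichment of output over input reads, centred on the mode score of non-aggregating sequences. Psi-negative yeast expressing Sup35N fused to peptides of 20 random codons were induced with 100 μM copper sulfate for 24 hours and grown 7 days at 30°C on medium lacking adenine and uracil. Input and output plasmid inserts were Illumina-sequenced, and sequences with under 100 input reads were excluded.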
WFGLTALGDTFYGLYFCKKL displayed an amyloid nucleation score of -0.848 ± 0.78.

In turn, TASICSYR gave an amyloid nucleation score of -0.289 ± 0.49.

In turn, FWVFAITFTAERKLQADDLF yielded an amyloid nucleation score of 1.84 ± 0.15.

Take YLNSFLYVMLFLVPDRSVTR: the amyloid nucleation score was 6.18 ± 0.068.

As for NTNYGLIQFGILLCRFC, the amyloid nucleation score was determined as 6.814 ± 0.052.

With IQSIIW, the amyloid nucleation score is -0.418 ± 0.5.

AVCVMWANGLVYMTSLECER: the amyloid nucleation score was -0.679 ± 0.35.

Consider RSRKK, for which the amyloid nucleation score amounted to 0.34 ± 0.21.

Regarding KESECITS, the amyloid nucleation score is -0.849 ± 0.75.

In the case of TVSMDVLYMIGGCLLCVV, the amyloid nucleation score worked out at 0.209 ± 0.41.

The substance VYACLSHSVRV yielded an amyloid nucleation score of 1.05 ± 0.97.

The substance CASRFMCGPTINKWVR showed an amyloid nucleation score of -1.02 ± 1.1.

As to MVHKWVIFFNRTVCRLMLPV, the amyloid nucleation score was determined as 0.589 ± 0.37.

On to TAASTHLVSACTLTKRCERL, for which the amyloid nucleation score was -0.673 ± 0.92.

Substance SEKRR came in with an amyloid nucleation score of 0.075 ± 0.26.

Substance LVKWGCQLSVEFVRFNTGFQ returned an amyloid nucleation score of 1.74 ± 0.094.

Take AVELAKSPLWIPKLGYVMNQ: the amyloid nucleation score was 0.233 ± 0.48.

Consider NNMWSILTAAWDHVCSWRSS, for which the amyloid nucleation score came out at 1.77 ± 0.5.

With SSCSPHLLFGLASVGV, the amyloid nucleation score turned out to be 0.39 ± 0.53.

RMYWVDFAGLFIDCL: the amyloid nucleation score entry was “inactive”.

The substance ELSYSYQSGID had an amyloid nucleation score of 0.225 ± 0.67.

Regarding CAKGCCD, the amyloid nucleation score was -0.344 ± 0.72.

As to IFVYCEFNKNRIPALASWVG, the amyloid nucleation score is 0.93 ± 0.43.

ILLICYGSCAPNNMVSASTD showed an amyloid nucleation score of -0.959 ± 0.84.

Turning to MGTLDI, the amyloid nucleation score result was “inactive”.

FYITQTEGQLLLCR had an amyloid nucleation score of -0.148 ± 0.55.

Turning to IAVFRYFDSYRPFTRVSVLF, the amyloid nucleation score result is “inactive”.

Substance GALVCRCDGCYKSMGKAIMA registered an amyloid nucleation score of -0.243 ± 0.56.

The substance TWAHMQYDVWPDPTAEKDQV returned an amyloid nucleation score of 0.158 ± 0.34.

With CLGHISVMNVTASNANYHFS, the amyloid nucleation score was determined as 7.237 ± 0.053.

SVMGVSWFLFLDYGDSINFR displayed an amyloid nucleation score of 0.521 ± 0.36.

The substance KKRSFLGYFVSLAFYNCYQY had an amyloid nucleation score of 2.73 ± 0.075.

In the case of GWENSLYNFFCLW, the amyloid nucleation score amounted to 0.342 ± 0.35.

In the case of SFGPIVCGFVVKRMWKCNIG, the amyloid nucleation score came out at 3.63 ± 0.12.

YYGVWVDREHWL showed an amyloid nucleation score of 0.628 ± 0.48.

KVSEDMYSHFQQSFSQAIIV: the amyloid nucleation score result was “inactive”.

For the substance WVGFGDVKSVTVMLYAPAWT, the amyloid nucleation score was 5.04 ± 0.094.

IYNTYPTRRLRLQRGYYSME gave an amyloid nucleation score of -0.607 ± 1.5.

AWILRWKEIPMEYSLSS showed an amyloid nucleation score of 0.202 ± 0.56.

Substance RSALVLVYGLTACLNGLGMC showed an amyloid nucleation score of 3.04 ± 0.097.

Take YFAYQDILVNDTIRIL: the amyloid nucleation score amounted to 0.063 ± 0.56.

Consider AIRFDLVTFAAIEGIIYKGR, for which the amyloid nucleation score stood at 0.136 ± 1.

On to HDGLLVFAFHY, for which the amyloid nucleation score was -0.378 ± 1.4.

The substance GWYSFLPSRNYFK had an amyloid nucleation score of 4.92 ± 0.072.

In the case of LMSLVNPTRVSLFFDH, the amyloid nucleation score was -0.11 ± 0.68.

For CWVLNFVFGDCNLSCWGN, the amyloid nucleation score stood at 7.185 ± 0.051.

APEGLPMDAPGLGWVNRVII yielded an amyloid nucleation score of -0.295 ± 0.8.

With GLRALEMSLSES, the amyloid nucleation score entry was “inactive”.

In the case of TVYSLYVIDALGFLCTNVML, the amyloid nucleation score stood at 0.349 ± 0.62.

In turn, IFPPFMDFRNCPVMLNC came in with an amyloid nucleation score of 0.761 ± 0.2.

MAFMLWLDYW came in with an amyloid nucleation score of 0.395 ± 0.32.

LGCLYIA showed an amyloid nucleation score of -0.711 ± 0.44.

In the case of EVITNTNGIVWSFDELYSVM, the amyloid nucleation score entry is “inactive”.

Substance IILWAWCKTGGDGIPSGVVL gave an amyloid nucleation score of 0.342 ± 0.23.

In the case of DIKGRLLWGDKARLNEVPLR, the amyloid nucleation score was 1.04 ± 0.57.

For STLYLLHGRNSHTGRSFSRH, the amyloid nucleation score was -1.01 ± 0.66.

On to DKSNRTCNWQFNNICCL, for which the amyloid nucleation score is 8.386 ± 0.049.

The substance QIRLYSSGWMFGCAAYVVSM gave an amyloid nucleation score of 0.853 ± 0.41.

For HRYRGRNLLILCRNDDWCDF, the amyloid nucleation score stood at 1.26 ± 0.47.

Take MCFLLSYLRWLDYYSYVVVC: the amyloid nucleation score came out at 0.962 ± 0.42.

The substance VPIFVNKFVDYTSLSCMHCL registered an amyloid nucleation score of 7.379 ± 0.06.

For HMITSLRWSSLRSWTQVWLR, the amyloid nucleation score result was “inactive”.

GFISIGP yielded an amyloid nucleation score of -0.068 ± 0.29.

For FDSFKVRYN, the amyloid nucleation score is -0.724 ± 0.7.

With FSSCLTMRLV, the amyloid nucleation score was -0.365 ± 1.6.

Substance QYMREEAGVALNGETHFFSL registered an amyloid nucleation score of 0.567 ± 0.39.

The substance SFRYFKLSCYFFFLVFAVFF gave an amyloid nucleation score of -1.02 ± 2.4.

Consider HVWSILAISVYNAHRGSRV, for which the amyloid nucleation score was determined as 7.134 ± 0.051.

Substance SVISNVCSKCTVTRRDGP showed an amyloid nucleation score of 3.17 ± 0.11.

SGPGDKVAISMNIY displayed an amyloid nucleation score of 5.16 ± 0.087.

In turn, DTYITGSHCHFYMNCWKA yielded an amyloid nucleation score of 8.519 ± 0.079.

YVRMACMLGLHSRYWMHRVV: the amyloid nucleation score is -0.267 ± 0.6.

As to CTMLCFQALRLLGRRILFQA, the amyloid nucleation score is -0.361 ± 0.48.

IILSAHVLSRTFLAFVSQKE: the amyloid nucleation score worked out at 0.146 ± 0.77.

Consider DGSYTTRGRGHGESGRSGCW, for which the amyloid nucleation score is 0.17 ± 0.42.

In turn, NLLLIMDFVGWV registered an amyloid nucleation score of 1.48 ± 0.56.

SYNTIIGSSCN gave an amyloid nucleation score of 0.701 ± 0.69.

As for RPRSDSRGTRKDNGFDDVKL, the amyloid nucleation score was determined as 0.438 ± 0.39.

For KGANADAYGRGYNAVFMLEW, the amyloid nucleation score is -1.39 ± 1.2.

For the substance YFSFLDNGGMPYVVVDYGLC, the amyloid nucleation score turned out to be 0.042 ± 0.85.

ALIFLGYMLRRRYWIYRLLS returned an amyloid nucleation score of 0.07 ± 0.58.

Substance VASTTSGRHWSLRGHKRFGR registered an amyloid nucleation score of 1.28 ± 0.72.

As for GCIWWPTDRPLLLSPAMSYS, the amyloid nucleation score amounted to 0.133 ± 0.37.

In turn, ITVRPLPYRPIDVHRYFAQH displayed an amyloid nucleation score of 0.77 ± 0.34.

For the substance HVIQKSN, the amyloid nucleation score is -0.988 ± 0.5.

In turn, PVYMGIAALYGPGCLTLLTV came in with an amyloid nucleation score of 2.07 ± 0.3.

HASWVRAITWVHQAGTYVML gave an amyloid nucleation score of -0.693 ± 1.3.

Substance PSHFHHQ had an amyloid nucleation score of 0.305 ± 0.32.

For the substance CFSMILVYYVLFARFVSWSM, the amyloid nucleation score is 0.15 ± 0.41.

In the case of DFRAIS, the amyloid nucleation score is 0.576 ± 0.79.

As to LTVIVFIMEATIDYYGGRCG, the amyloid nucleation score came to 0.959 ± 0.92.

Turning to MFWQHQLFVESRQNSSFTSF, the amyloid nucleation score is -0.23 ± 0.63.

Consider GMMHYRFLIFFWYTSRTAYW, for which the amyloid nucleation score was -0.355 ± 0.84.

HTYDGHSVSGCTGHVMFLSS: the amyloid nucleation score was -0.021 ± 0.41.

HELMLQILGLAFLLGMFAGV showed an amyloid nucleation score of -0.747 ± 0.63.

HRITSFVYYFGLSSEFYIYP displayed an amyloid nucleation score of 0.009 ± 1.1.

QLVYCCLLILIYTYEC returned an amyloid nucleation score of 0.499 ± 0.42.

Consider CLSSSH, for which the amyloid nucleation score was -0.322 ± 0.38.

Regarding SRGLNFVIVTFYCDLLQG, the amyloid nucleation score is -0.881 ± 1.6.

Turning to VMWSVDFWYPAMSGVIPDQF, the amyloid nucleation score was 1.45 ± 0.65.

MERYCN had an amyloid nucleation score of -0.148 ± 0.23.

Turning to CFVVHMSKEFYGRYFVRRIN, the amyloid nucleation score result was “inactive”.

Regarding RGRSIDVPRE, the amyloid nucleation score was -0.004 ± 0.53.

Regarding ILKRSCEVVL, the amyloid nucleation score was -0.243 ± 0.47.

Turning to YGQIPTFHRRSQVHLCNRIW, the amyloid nucleation score stood at 0.206 ± 1.6.

In turn, KNQKMVYTRIGLPGFG showed an amyloid nucleation score of -0.42 ± 0.56.

The substance RLMSADFMQQEMMRGKVMAG gave an amyloid nucleation score of -0.351 ± 0.41.

As for KVYYRVKMHYSLAGEARTDT, the amyloid nucleation score stood at 0.621 ± 0.84.

As to LLRRLTTI, the amyloid nucleation score stood at 0.696 ± 0.52.

As to TWSSGRETSCVLFWVQVSKL, the amyloid nucleation score was -0.101 ± 0.33.

With KKSYCYPFPFFSYV, the amyloid nucleation score is 0.423 ± 0.65.

PDMCQERNYCELYPCKARAT gave an amyloid nucleation score of -0.612 ± 0.41.

Substance SYRRAVHGVVVQQKRDEFVL gave an amyloid nucleation score of -0.026 ± 0.36.

Regarding RWSIELCVRM, the amyloid nucleation score is -0.367 ± 0.51.

Take DPICYKRNKANVYLGRFGYR: the amyloid nucleation score stood at 0.7 ± 0.66.

In turn, NYFIVLSR came in with an amyloid nucleation score of 2.09 ± 0.43.

The substance TCFEMLPLK gave an amyloid nucleation score of 0.454 ± 0.5.

With FWCMALK, the amyloid nucleation score is -1.05 ± 2.4.

Regarding EGGSF, the amyloid nucleation score came out at 0.059 ± 0.45.

Regarding KSLVKYKWNLTFILY, the amyloid nucleation score result was “inactive”.

In turn, ERLYLSRYSMVIFVGLMCKS yielded an amyloid nucleation score of -0.145 ± 0.61.

Take SRYELSIVDCLRHTTSFFVR: the amyloid nucleation score stood at 0.034 ± 0.81.

For the substance CVFVRMMCTRFAAHHCVLSG, the amyloid nucleation score is -0.143 ± 1.2.

In the case of VYFYVQPNGFMEIGASMIAA, the amyloid nucleation score is -0.431 ± 1.4.

In turn, KSLENDHIVSVCSFLISRTR came in with an amyloid nucleation score of 3.97 ± 0.081.

Turning to TWMNASCKSCTYAARFSDQK, the amyloid nucleation score is 1.51 ± 0.56.

In the case of TPANNVRISFIWFL, the amyloid nucleation score was 3.54 ± 0.064.

With YNVKVMCSVQSEMRGIT, the amyloid nucleation score came to 0.465 ± 0.68.

Substance LFSLNTLCM showed an amyloid nucleation score of 0.985 ± 0.51.

For ILPAYAQ, the amyloid nucleation score was determined as 0.134 ± 1.1.

In turn, LIHYNNNVYTRWAWSSQQGE had an amyloid nucleation score of 2.75 ± 0.2.

CNLSTCSFHFHFLT yielded an amyloid nucleation score of 4.53 ± 0.11.

In the case of DGICNW, the amyloid nucleation score stood at 2.61 ± 0.12.

With VRMSFRLVEPY, the amyloid nucleation score was -0.301 ± 0.81.

With CSDSVGSIYSHVRSGGLE, the amyloid nucleation score result is “inactive”.

The substance GTTLDYWRVMEMSGDFTSFC gave an amyloid nucleation score of -0.073 ± 0.68.

VKVGVCGSVGWLHTGVQSNG: the amyloid nucleation score stood at 0.804 ± 0.3.

In turn, VHTGLVSEIRRDKREGAYPE showed an amyloid nucleation score of 0.128 ± 0.99.

SQVEVIVYNVVSFTDGVRLA showed an amyloid nucleation score of 3.89 ± 0.097.

LGPDSLHLFGMVGSGRLNIL: the amyloid nucleation score was -0.029 ± 0.88.

FGVYLACIHRKVLECDR: the amyloid nucleation score was -0.241 ± 1.
